From patent US20020111476A1 (published 2002) come the findings set out here.

The series concerns the molecule itself. The series is described as follows: preliminary analysis of molecular form; method not detailed.

B1: Mouse cysteine rich soluble protein 2 (C2) (ligand)
chain: DETIEIIVENKVKELLANPANYPSTVTKTLSCTSVKTMNRWASCPAGMTATGCACGFACGSWEIQSGDTCNCLCLLVDWTTARCCQLS
notes: the copy number is not fixed; also called mC2; mouse C2
B1: the binding result is “binds”.
